Kd and koff data for three molecules are collected here from article PMC12199305 (2025).

The target of assay [1] is T1, MEF2A (human, UniProt Q02078 1-507). Nature of the assay: SPR. Background: SPR reads the build-up and loss of mass on a sensor chip optically.
Assay [2] deals with T1, MEF2A. In words: SPR. The source holds these as a separate data set.

T1 sequence (Q02078 whole entry): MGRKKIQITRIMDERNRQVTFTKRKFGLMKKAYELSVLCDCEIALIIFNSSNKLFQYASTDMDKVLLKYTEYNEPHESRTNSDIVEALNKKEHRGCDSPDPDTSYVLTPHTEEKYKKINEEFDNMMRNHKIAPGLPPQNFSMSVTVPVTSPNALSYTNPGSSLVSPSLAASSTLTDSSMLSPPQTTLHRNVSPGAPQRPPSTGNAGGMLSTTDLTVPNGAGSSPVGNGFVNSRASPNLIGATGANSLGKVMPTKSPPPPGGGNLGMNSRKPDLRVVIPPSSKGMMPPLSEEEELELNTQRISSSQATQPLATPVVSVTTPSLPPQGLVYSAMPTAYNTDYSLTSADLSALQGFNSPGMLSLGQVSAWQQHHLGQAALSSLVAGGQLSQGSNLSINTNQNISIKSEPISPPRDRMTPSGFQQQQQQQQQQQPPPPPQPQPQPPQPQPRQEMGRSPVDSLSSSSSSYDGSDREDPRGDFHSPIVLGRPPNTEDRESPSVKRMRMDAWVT

B1: HDAC7 (enzyme)
chain: MDLRVGQRPPVEPPPEPTLLALQRPQRLHHHLFLAGLQQQRSVEPMRLSMDTPMPELQVGPQEQELRQLLHKDKSKRSAVASSVVKQKLAEVILKKQQAALERTVHPNSPGIPYRTLEPLETEGATRSMLSSFLPPVPSLPSDPPEHFPLRKTVSEPNLKLRYKPKKSLERRKNPLLRKESAPPSLRRRPAETLGDSSPSSSSTPASGCSSPNDSEHGPNPILGSEALLGQRLRLQETSVAPFALPTVSLLPAITLGLPAPARADSDRRTHPTLGPRGPILGSPHTPLFLPHGLEPEAGGTLPSRLQPILLLDPSGSHAPLLTVPGLGPLPFHFAQSLMTTERLSGSGLHWPLSRTRSEPLPPSATAPPPPGPMQPRLEQLKTHVQVIKRSAKPSEKPRLRQIPSAEDLETDGGGPGQVVDDGLEHRELGHGQPEARGPAPLQQHPQVLLWEQQRLAGRLPRGSTGDTVLLPLAQGGHRPLSRAQSSPAAPASLSAPEPASQARVLSSSETPARTLPFTTGLIYDSVMLKHQCSCGDNSRHPEHAGRIQSIWSRLQERGLRSQCECLRGRKASLEELQSVHSERHVLLYGTNPLSRLKLDNGKLAGLLAQRMFVMLPCGGVGVDTDTIWNELHSSNAARWAAGSVTDLAFKVASRELKNGFAVVRPPGHHADHSTAMGFCFFNSVAIACRQLQQQSKASKILIVDWDVHHGNGTQQTFYQDPSVLYISLHRHDDGNFFPGSGAVDEVGAGSGEGFNVNVAWAGGLDPPMGDPEYLAAFRIVVMPIAREFSPDLVLVSAGFDAAEGHPAPLGGYHVSAKCFGYMTQQLMNLAGGAVVLALEGGHDLTAICDASEACVAALLGNRVDPLSEEGWKQKPNLNAIRSLEAVIRVHSKYWGCMQRLASCPDSWVPRVPGADKEEVEAVTALASLSVGILAEDRPSEQLVEEEEPMNL
B1: in the assay with MEF2A [1], the Kd (in general, the constant that tells how readily two partners part at equilibrium) was 3.5 nM. Moreover, the dissociation rate constant (koff) – broadly, the first-order rate constant of dissociation – in the assay with MEF2A [2] was 0.00082 s⁻¹.

B2: HDAC9 (enzyme)
chain: MHSMISSVDVKSEVPVGLEPISPLDLRTDLRMMMPVVDPVVREKQLQQELLLIQQQQQIQKQLLIAEFQKQHENLTRQHQAQLQEHIKELLAIKQQQELLEKEQKLEQQRQEQEVERHRREQQLPPLRGKDRGRERAVASTEVKQKLQEFLLSKSATKDTPTNGKNHSVSRHPKLWYTAAHHTSLDQSSPPLSGTSPSYKYTLPGAQDAKDDFPLRKTASEPNLKVRSRLKQKVAERRSSPLLRRKDGNVVTSFKKRMFEVTESSVSSSSPGSGPSSPNNGPTGSVTENETSVLPPTPHAEQMVSQQRILIHEDSMNLLSLYTSPSLPNITLGLPAVPSQLNASNSLKEKQKCETQTLRQGVPLPGQYGGSIPASSSHPHVTLEGKPPNSSHQALLQHLLLKEQMRQQKLLVAGGVPLHPQSPLATKERISPGIRGTHKLPRHRPLNRTQSAPLPQSTLAQLVIQQQHQQFLEKQKQYQQQIHMNKLLSKSIEQLKQPGSHLEEAEEELQGDQAMQEDRAPSSGNSTRSDSSACVDDTLGQVGAVKVKEEPVDSDEDAQIQEMESGEQAAFMQQPFLEPTHTRALSVRQAPLAAVGMDGLEKHRLVSRTHSSPAASVLPHPAMDRPLQPGSATGIAYDPLMLKHQCVCGNSTTHPEHAGRIQSIWSRLQETGLLNKCERIQGRKASLEEIQLVHSEHHSLLYGTNPLDGQKLDPRILLGDDSQKFFSSLPCGGLGVDSDTIWNELHSSGAARMAVGCVIELASKVASGELKNGFAVVRPPGHHAEESTAMGFCFFNSVAITAKYLRDQLNISKILIVDLDVHHGNGTQQAFYADPSILYISLHRYDEGNFFPGSGAPNEVGTGLGEGYNINIAWTGGLDPPMGDVEYLEAFRTIVKPVAKEFDPDMVLVSAGFDALEGHTPPLGGYKVTAKCFGHLTKQLMTLADGRVVLALEGGHDLTAICDASEACVNALLGNELEPLAEDILHQSPNMNAVISLQKIIEIQSMSLKFS
With B2, in the assay with MEF2A [1], the Kd amounted to 19.1 nM. The molecule further yielded a dissociation rate constant (koff) with MEF2A [2] of 0.0082 s⁻¹.

B3: HDAC4 (enzyme)
chain: MSSQSHPDGLSGRDQPVELLNPARVNHMPSTVDVATALPLQVAPSAVPMDLRLDHQFSLPVAEPALREQQLQQELLALKQKQQIQRQILIAEFQRQHEQLSRQHEAQLHEHIKQQQEMLAMKHQQELLEHQRKLERHRQEQELEKQHREQKLQQLKNKEKGKESAVASTEVKMKLQEFVLNKKKALAHRNLNHCISSDPRYWYGKTQHSSLDQSSPPQSGVSTSYNHPVLGMYDAKDDFPLRKTASEPNLKLRSRLKQKVAERRSSPLLRRKDGPVVTALKKRPLDVTDSACSSAPGSGPSSPNNSSGSVSAENGIAPAVPSIPAETSLAHRLVAREGSAAPLPLYTSPSLPNITLGLPATGPSAGTAGQQDAERLTLPALQQRLSLFPGTHLTPYLSTSPLERDGGAAHSPLLQHMVLLEQPPAQAPLVTGLGALPLHAQSLVGADRVSPSIHKLRQHRPLGRTQSAPLPQNAQALQHLVIQQQHQQFLEKHKQQFQQQQLQMNKIIPKPSEPARQPESHPEETEEELREHQALLDEPYLDRLPGQKEAHAQAGVQVKQEPIESDEEEAEPPREVEPGQRQPSEQELLFRQQALLLEQQRIHQLRNYQASMEAAGIPVSFGGHRPLSRAQSSPASATFPVSVQEPPTKPRFTTGLVYDTLMLKHQCTCGSSSSHPEHAGRIQSIWSRLQETGLRGKCECIRGRKATLEELQTVHSEAHTLLYGTNPLNRQKLDSKKLLGSLASVFVRLPCGGVGVDSDTIWNEVHSAGAARLAVGCVVELVFKVATGELKNGFAVVRPPGHHAEESTPMGFCYFNSVAVAAKLLQQRLSVSKILIVDWDVHHGNGTQQAFYSDPSVLYMSLHRYDDGNFFPGSGAPDEVGTGPGVGFNVNMAFTGGLDPPMGDAEYLAAFRTVVMPIASEFAPDVVLVSSGFDAVEGHPTPLGGYNLSARCFGYLTKQLMGLAGGRIVLALEGGHDLTAICDASEACVSALLGNELDPLPEKVLQQRPNANAVRSMEKVMEIHSKYWRCLQRTTSTAGRSLIEAQTCENEEAETVTAMASLSVGVKPAEKRPDEEPMEEEPPL
In the assay with MEF2A [1], B3 returned a Kd of 5 nM. In the assay with MEF2A [2], this molecule showed a koff of 0.0025 s⁻¹.
